Earlier results, collected in paper PMC4569521 (Journal of molecular biology, 2015).

Molecular target: ClpXP (Escherichia coli, UniProt P0A6G7+P0A6H1)
Settings: MuA monomers; ref [23]

Sequence of ClpXP (P0A6H1 whole entry): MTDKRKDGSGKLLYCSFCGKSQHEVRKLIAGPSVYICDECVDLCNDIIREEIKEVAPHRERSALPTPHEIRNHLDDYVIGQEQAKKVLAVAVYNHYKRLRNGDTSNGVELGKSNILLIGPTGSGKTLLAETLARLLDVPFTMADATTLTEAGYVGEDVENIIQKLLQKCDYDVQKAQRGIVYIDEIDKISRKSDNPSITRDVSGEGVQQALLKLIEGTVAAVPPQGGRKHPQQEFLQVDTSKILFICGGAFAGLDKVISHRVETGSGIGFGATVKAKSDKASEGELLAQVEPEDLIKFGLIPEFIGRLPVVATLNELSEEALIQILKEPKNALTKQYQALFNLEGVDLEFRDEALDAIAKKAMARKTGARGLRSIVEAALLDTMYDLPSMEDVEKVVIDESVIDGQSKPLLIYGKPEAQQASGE
Sequence of ClpXP (P0A6G7 15-207 partner): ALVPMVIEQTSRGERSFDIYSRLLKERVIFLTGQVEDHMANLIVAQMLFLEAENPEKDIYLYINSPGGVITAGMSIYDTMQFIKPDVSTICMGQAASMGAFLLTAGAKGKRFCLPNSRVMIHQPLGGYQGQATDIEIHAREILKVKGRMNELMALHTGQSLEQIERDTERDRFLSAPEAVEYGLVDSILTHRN

In the case of “MuA monomers: Phage Mu transposase, ~75kDa, three domains; monomer in solution”, the “appKM for degradation by ClpXP” value is listed as ~ 10 μM.
